For experiment [1], the target named is T1, ovalbumin (UniProt P01012 2-386).
T1 sequence (looked up): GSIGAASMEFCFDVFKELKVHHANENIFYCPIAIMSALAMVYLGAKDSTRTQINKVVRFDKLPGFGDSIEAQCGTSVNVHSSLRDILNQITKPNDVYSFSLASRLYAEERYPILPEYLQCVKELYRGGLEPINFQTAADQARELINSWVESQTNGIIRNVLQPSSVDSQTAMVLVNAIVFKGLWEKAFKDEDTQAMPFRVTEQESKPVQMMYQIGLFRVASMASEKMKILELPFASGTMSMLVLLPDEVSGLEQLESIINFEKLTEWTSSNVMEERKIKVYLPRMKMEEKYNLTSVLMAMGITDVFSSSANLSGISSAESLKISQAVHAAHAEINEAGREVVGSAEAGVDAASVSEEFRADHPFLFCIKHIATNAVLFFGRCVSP
Nature of the experiment: capture ELISA. For orientation: An ELISA detects its analyte on a solid surface through an enzyme-linked reagent.

Experiment [2] addresses T2, MBP-Aβ40 fusion protein.
T2 construct: the entry may be a nucleic acid; Biotin-labelled in the capture ELISA, unlabeled in the direct ELISA and SPR; also called MBP-Abeta40
Nature of the experiment: SPR (Biacore X), MBP-Aβ40 amine-coupled (1316 RU), mutein as analyte. Here is the method: (§1) FIG. 20 depicts the kinetic real time analysis of Lcn2 muteins H1GA (A) and H1GV (B) measured on a Biacore X instrument at a flow rate of 20 μl/min. The MBP-Aβ40 fusion protein was coupled via amine chemistry to a CMD 2001 chip (ΔRU=1316) and each of the purified Lcn2 muteins was applied in a series at varying concentrations. The measured signal is shown as a grey line while the curve fit is depicted as a black line in each case.
(§2) Real time analysis of the interaction between Lcn2 muteins H1GA or H1GV and MBP-Aβ40 (SEQ ID NO: 33) was performed on a Biacore X system using PBS/T (4 mM KH₂PO₄, 16 mM Na₂HPO₄, 115 mM NaCl, pH 7.4 containing 0.005% (v/v) Tween 20) as running buffer. A 15 μg/mL solution of MBP-Aβ40 from Example 2 in 10 mM Na-acetate, pH 4.5 was immobilized onto a CMD 200I chip (Xantec, Düsseldorf, Germany) using standard amine coupling chemistry, resulting in a ligand density of 1316 resonance units (RU). The purified Lcn2 muteins H1GA and H1GV from Example 20 were applied in concentrations ranging from 4 nM to 128 nM at a flow rate of 20 μL/min. The data were double-referenced by subtraction of the corresponding signals measured for the control channel, which had been activated and blocked with ethanolamine, as well as subtraction of the measured signals for an average of buffer injections.
A general note: Surface plasmon resonance follows binding to a sensor surface in real time, without labels.

The target of experiment [3] is T3, biotinylated Aβ40 peptide (human, C-terminal biotin group attached via a lysine spacer).
T3 construct: Synthetic peptide (Peptide Speciality Laboratory) with a C-terminal biotin on a lysine spacer; used in the capture ELISAs
Nature of the experiment: capture ELISA: mutein captured via Strep-tag II, biotinylated Aβ40 titrated. The protocol: (§3) FIG. 19 depicts the binding activity of the Lcn2 muteins H1GA, H1GV, and H1-G1 in capture ELISAs with the biotinylated Aβ targets Aβ40 (A) and Trx-Aβ28 (B). StrepMAB-Immo was immobilized at 10 μg/ml on microtitre plates and employed for capturing of 1 μM Lcn2 muteins via the Strep-tag H. Binding of the biotinylated targets, applied in a dilution series, was then detected by incubation with ExtrAvidin/AP and a subsequent chromogenic reaction with pNPP. […] The data were fitted to a monovalent binding model.

In experiment [4] the target is T4, Trx-Aβ28 fusion protein (Escherichia coli (strain K12), UniProt P0AA25 1-76 = thioredoxin, Biotin-labelled through an NHS ester (2:1) in the capture and competitive ELISAs; unlabeled in the direct ELISA and as competitor.).
T4 construct: the entry may be a nucleic acid; also called TrxAbeta28H6
Nature of the experiment: capture ELISA: mutein captured via Strep-tag II, biotinylated Trx-Aβ28 titrated. The protocol: as §3

Experiment [5] concerns the target T2, MBP-Aβ40 fusion protein. Nature of the experiment: SPR (Biacore X, FIG. 20), MBP-Aβ40 immobilised, H1GV injected; the table marks the row '* dissociation time not sufficiently long'. Here is the method:
as §1, §2

Experiment [6] has as its target T5, Aβ40 peptide, non-labeled (human).
T5 construct: Non-labeled synthetic peptide (W. M. Keck Laboratory); also called Abeta40; amyloid beta peptide
Nature of the experiment: SPR (Biacore T100), Aβ40 amine-coupled on CM5 (325 RU), mutein as analyte. Here is the method: (§4) FIG. 21 depicts the kinetic real time analysis of the Lcn2 mutein H1GA measured on a Biacore T100 instrument with immobilized Aβ40 using an extended dissociation time for a trace measured at high concentration. The target peptide Aβ40 was coupled via amine chemistry onto the Biacore CM5 chip (ΔRU=325), and the purified Lcn2 mutein H1GA was applied at a flow rate of 30 μl/min. For exact determination of the low koff rate, dissociation was performed for 7200 s at the highest concentration tested. kon rates were determined using the dilution series of the Lcn2 mutein H1GA with both association and dissociation times of 300 s.
(§5) Real time analysis of the interaction between the Lcn2 mutein H1GA and Aβ40 (SEQ ID NO: 29) was performed on a Biacore T100 system (Biacore, Uppsala, Sweden) using PBS/P (4 mM KH₂PO₄, 16 mM Na₂HPO₄, 115 mM NaCl, pH 7.4 containing 0.005% (v/v) Surfactant P20) as running buffer. […] For exact determination of the low koff rate the highest concentration was analysed using a dissociation time of 7200 s. The data were double-referenced as in Example 21. kₒₙ and koff for the binding reaction were determined from the entire data set using Biacore T100 Evaluation Software V2.0.3 for data processing and kinetic fitting. […]

The target in experiment [7] is T5, Aβ40 peptide, non-labeled. Nature of the experiment: SPR (Biacore T100), Aβ40 amine-coupled on CM5 (325 RU), dissociation 7200 s. Here is the method:
as §4, §5

For experiment [8], the target named is T2, MBP-Aβ40 fusion protein. Nature of the experiment: SPR (Biacore X, FIG. 20), MBP-Aβ40 immobilised, H1GA injected; the table marks the row '* dissociation time not sufficiently long'. Here is the method: as §1, §2
The target in experiment [9] is T6, BSA (bovine, UniProt P02769 25-607).
T6 construct: also called bovine serum albumin
Nature of the experiment: ELISA on coated protein.

Experiment [10] addresses T7, recombinant human fibronectin fragment FN789 (human, UniProt P02751 1173-1539).
T7 construct: the entry may be a nucleic acid
Nature of the experiment: ELISA on coated protein.

The target of experiment [11] is T8, recombinant human fibronectin fragment FN7B8 (human, UniProt P02751 1173-1448).
T8 construct: no separate number is printed for the protein, so the entry may be a nucleic acid
Nature of the experiment: ELISA: FN7B8 coated, mutein titrated, detected via Strep-tag II.

The target of experiment [12] is T9, recombinant fibronectin single domain ED-B (human).
T9 construct: the entry may be a nucleic acid; also called extra domain-B; extra-domain B
Nature of the experiment: SPR (BIAcore X), ED-B amine-coupled (about 180 RU), mutein as analyte. Here is the method:
(§6) FIG. 27 depicts the kinetic real time analysis of Lcn2 variants N7A (A), N7E (B), N9B (C) and N10D (D) measured on a Biacore X instrument. The single fibronectin domain ED-B was coupled via amine chemistry to a CMD 200 m sensor chip (ΔRU=180) and the purified Lcn2 variants were applied at varying concentrations. The measured signals are shown as traces together with the curve fits.
(§7) Real time interaction analysis of Lcn2 muteins was performed on a BIAcore X instrument using HBS/ET (20 mM Hepes, pH 7.5, 150 mM NaCl, 1 mM EDTA containing 0.005% (v/v) Tween 20) as running buffer. 100 μg/ml solution of recombinant ED-B in 10 mM Na-acetate, pH 4.0 was immobilized on a CMD 200 m Sensorchip using standard amine coupling chemistry, resulting in a ligand density of about 180 resonance units (RU). The purified Lcn2 mutein was applied at a flow rate of 25 μl/min at concentrations of 2.5 up to 160 nM. The sensorgrams were corrected by subtraction of the corresponding signals measured for the control channel, which had been activated and blocked with ethanolamine. […] In the case of N10D the heterogeneous analyte competing reaction model was used for data fitting, resulting in two sets of kinetic constants.

For experiment [13], the target named is T8, recombinant human fibronectin fragment …. Nature of the experiment: SPR (BIAcore X), FN7B8 amine-coupled (about 500 RU), mutein as analyte. From the text:
FIG. 13 depicts the kinetic real time analysis of Lcn2 mutein N9B measured on a Biacore instrument. FN7B8 was coupled via amine chemistry to a CMD 200 m sensor chip (ΔRU=500) and the purified Lcn2 mutein was applied at varying concentrations. The measured signal is shown as a grey line whereas the curve fit is depicted as a black line in each case.
FIG. 14 depicts the kinetic real time analysis of Lcn2 mutein N7E measured on a Biacore instrument. FN7B8 was coupled via amine chemistry to a CMD 200 m sensor chip (ΔRU=500) and the purified Lcn2 mutein was applied at varying concentrations. The measured signal is shown as a grey line whereas the curve fit is depicted as a black line in each case.
Real time analysis of Lcn2 muteins was performed on a BIAcore X system (BIAcore, Uppsala, Sweden) using HBS/ET (20 mM Hepes, pH 7.5, 150 mM NaCl, 1 mM EDTA containing 0.005% (v/v) Tween 20) as running buffer. 200 μg/ml solution of recombinant FN7B8 in 10 mM Na-acetate, pH 4.0 was immobilized on a CMD 200 m Sensorchip (XanTec bioanalytics, Duesseldorf, Germany) using standard amine coupling chemistry (Biacore, Uppsala, Sweden), resulting in a ligand density of about 500 resonance units (RU). The purified Lcn2 mutein was applied at a flow rate of 25 μl/min at concentrations of 2.5 up to 160 nM. The sensorgrams were corrected by subtraction of the corresponding signals measured for the control channel, which had been activated and blocked with ethanolamine.

The target of experiment [14] is T9, recombinant fibronectin single domain …. Nature of the experiment: SPR (BIAcore X), ED-B immobilised by amine coupling, Lcn2 mutein injected at 0 to 80 nM, 1:1 model. Here is the method:
as §6
as §7, with “The purified Lcn2 mutein was applied at a flow rate of 25 μl/min at concentrations of 2.5 up to 160 nM.” left out

T8 sequence (P02751 other isoform, or with tags, fused parts or gaps limits assumed): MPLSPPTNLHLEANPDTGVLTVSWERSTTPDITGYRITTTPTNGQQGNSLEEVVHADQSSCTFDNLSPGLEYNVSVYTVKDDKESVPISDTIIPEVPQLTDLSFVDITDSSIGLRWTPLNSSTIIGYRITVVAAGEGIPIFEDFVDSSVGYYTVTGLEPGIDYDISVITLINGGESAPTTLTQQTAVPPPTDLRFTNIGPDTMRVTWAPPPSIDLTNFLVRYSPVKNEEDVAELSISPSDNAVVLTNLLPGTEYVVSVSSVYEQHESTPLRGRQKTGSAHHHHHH
T9 sequence (chain, as listed by the source limits assumed): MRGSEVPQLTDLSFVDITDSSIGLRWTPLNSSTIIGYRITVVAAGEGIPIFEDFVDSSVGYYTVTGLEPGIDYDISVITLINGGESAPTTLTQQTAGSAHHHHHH
T5 sequence (peptide, as listed by the source): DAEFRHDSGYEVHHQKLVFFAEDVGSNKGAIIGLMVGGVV
T3 sequence (peptide, as listed by the source): as above
T6 sequence (P02769 25-607 limits assumed): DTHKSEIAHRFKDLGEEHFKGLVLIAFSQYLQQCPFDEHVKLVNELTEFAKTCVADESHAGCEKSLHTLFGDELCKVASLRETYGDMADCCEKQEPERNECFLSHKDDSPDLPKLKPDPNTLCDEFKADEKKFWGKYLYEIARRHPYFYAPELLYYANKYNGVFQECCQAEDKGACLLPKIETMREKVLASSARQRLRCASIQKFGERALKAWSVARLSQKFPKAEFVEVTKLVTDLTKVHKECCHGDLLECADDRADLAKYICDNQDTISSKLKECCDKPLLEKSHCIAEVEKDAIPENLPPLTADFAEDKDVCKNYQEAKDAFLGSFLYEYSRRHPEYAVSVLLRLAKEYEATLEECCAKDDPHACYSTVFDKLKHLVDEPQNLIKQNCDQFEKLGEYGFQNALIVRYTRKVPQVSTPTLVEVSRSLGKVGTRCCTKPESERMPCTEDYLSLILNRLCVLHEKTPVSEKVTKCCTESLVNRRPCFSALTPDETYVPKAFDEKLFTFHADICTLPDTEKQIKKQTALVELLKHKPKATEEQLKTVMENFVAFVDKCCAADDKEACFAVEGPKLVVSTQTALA
T7 sequence (P02751 other isoform, or with tags, fused parts or gaps limits assumed): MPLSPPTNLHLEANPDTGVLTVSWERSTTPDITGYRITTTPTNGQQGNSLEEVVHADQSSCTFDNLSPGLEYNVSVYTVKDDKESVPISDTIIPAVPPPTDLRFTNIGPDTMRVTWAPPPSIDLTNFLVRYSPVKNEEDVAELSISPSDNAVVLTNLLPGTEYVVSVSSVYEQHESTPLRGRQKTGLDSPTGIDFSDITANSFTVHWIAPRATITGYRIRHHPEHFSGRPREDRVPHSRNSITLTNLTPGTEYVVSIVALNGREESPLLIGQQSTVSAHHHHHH

B1: Lcn2 mutein H1GV (designed binder)
chain: QDSTSDLIPAPPLSKVPLQQNFQDNQFHGKWYVVGVAGNVLLREDKDPLKMYATIYELKEDKSYNVTSVGFDDKKCLYKIRTFVPGSQPGEFTLGRIKSEPGGTSWLVRVVSTNYNQHAMVFFKEVAQNRETFNITLYGRTKELTSELKENFIRFSKSLGLPENHIVFPVPIDQCIDG
notes: H1-G1 with Cys36 replaced by Val
Usually Kd stands for the equilibrium constant for the complex coming apart. A word on the koff: it is the rate constant with which the complex falls apart. A word on the kon: it is the second-order rate constant of association. For B1, the binding result in [1] is “no binding”. Further, the Kd in experiment [2] stood at 1.06 nM; in experiment [3], 4.9 nM; in experiment [4], 4.2 nM; in [5], 1.1 nM. The molecule further registered a koff in experiment [2] of 7.26e-05 s⁻¹. Besides, the kon in experiment [2] worked out at 68400 M⁻¹ s⁻¹.

B2: Lcn2 mutein H1GA (designed binder)
chain: QDSTSDLIPAPPLSKVPLQQNFQDNQFHGKWYVVGAAGNVLLREDKDPLKMYATIYELKEDKSYNVTSVGFDDKKCLYKIRTFVPGSQPGEFTLGRIKSEPGGTSWLVRVVSTNYNQHAMVFFKEVAQNRETFNITLYGRTKELTSELKENFIRFSKSLGLPENHIVFPVPIDQCIDG
notes: H1-G1 with Cys36 replaced by Ala
On to B2, for which, in experiment [1], the binding result is given as “no binding”. The Kd in experiment [2] came to 0.476 nM; in [6], 0.095 nM; in [3], 4.2 nM; in experiment [4], 3.8 nM; in experiment [8], 0.48 nM. In addition, the koff in experiment [2] came to 2.75e-05 s⁻¹; in [7] it was 1.18e-05 s⁻¹. The values for the kon in experiment [2] and in experiment [6] were 57700 M⁻¹ s⁻¹ and 125000 M⁻¹ s⁻¹, respectively.

B3: Lcn2 mutein N9B (designed binder)
chain: QDSTSDLIPAPPLSKVPLQQNFQDNQFHGKWYVVGRAGNMRLREDKDPAKMVATIYELKEDKSYNVTKVMFQRKKCKYMINTFVPGSQPGEFTLGAIKSPPGPTSTLVRVVSTNYNQHAMVFFKHVFQNREYFHITLYGRTKELTSELKENFIRFSKSLGLPENHIVFPVPIDQCIDG
Take B3: the binding result in [9] and in experiment [10] was “no binding” each time. The Kd in experiment [11] was found to be 40.1 nM; in [12] it was 5.26 nM; in experiment [13] it was 36 nM; in experiment [14], 5.3 nM. The koff is 0.00762 s⁻¹ in experiment [12] and 0.075 s⁻¹ in [13]. In addition, the on-rate constant (kon) in experiment [12] amounted to 1.45e+06 M⁻¹ s⁻¹; in experiment [13], 2.1e+06 M⁻¹ s⁻¹.

The values are drawn from patent US20130079286A1 (Pieris, published 2013).
